Measured values as given in paper PMC8121815 (Nature Communications, 2021).

Tests used:
Experiment in all cases: ITC
[1] = molecular target: human TOM70 (106-608) E549I, C-terminal His-tagged (human) (UniProt O94826)
[2] = molecular target: human TOM70 (106-608) H583Q, C-terminal His-tagged (human) (UniProt O94826)
[3] = molecular target: human TOM70 (106-608) E477A, C-terminal His-tagged (human) (UniProt O94826)
[4] = molecular target: hTOM70 mutant H583Q (human)
[5] = molecular target: human TOM70 (106-608) D545A, C-terminal His-tagged (human) (UniProt O94826)
[6] = molecular target: human TOM70 (106-608) E549A, C-terminal His-tagged (human) (UniProt O94826)

C-peptide (SARS-CoV-2 orf9b core sequence 44-70), sequence (P0DTD2 44-70 limits assumed): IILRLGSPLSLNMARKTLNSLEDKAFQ

Work on “C-peptide (SARS-CoV-2 orf9b core sequence 44-70) (from UniProt P0DTD2 44-70)” yielded a Ka [1] of 93800 M⁻¹, a Kd [1] of 10.7 µM and a stoichiometry N [1] of 1.7. For the same substance, the Ka [2] was 1.01e+06 M⁻¹, the stoichiometry N [2] was 1.5 and the Ka [3] was 3870 M⁻¹. It also gave a Kd [3] of 258 µM, a stoichiometry N [3] of 0 and a Kd [4] of 0.99 µM. The Ka [5] was 20100 M⁻¹, the Kd [5] was 49.8 µM and the stoichiometry N [5] was 1. The Ka [6] was 43800 M⁻¹, the Kd [6] was 22.8 µM and the stoichiometry N [6] was 1.5.
